Measurements taken from PMC7937191 (Biochemical and biophysical research communications, 2020).

Target: CXCR4-RLuc (chemokine (C-X-C motif) receptor 4 with Renilla reniformis luciferase at the C-terminus) (UniProt P61073 1-352)
Experiment: FRET or BRET

Sequence of CXCR4-RLuc (chemokine (C-X-C motif) receptor 4 with Renilla reniformis luciferase at the C-terminus) (P61073 whole entry): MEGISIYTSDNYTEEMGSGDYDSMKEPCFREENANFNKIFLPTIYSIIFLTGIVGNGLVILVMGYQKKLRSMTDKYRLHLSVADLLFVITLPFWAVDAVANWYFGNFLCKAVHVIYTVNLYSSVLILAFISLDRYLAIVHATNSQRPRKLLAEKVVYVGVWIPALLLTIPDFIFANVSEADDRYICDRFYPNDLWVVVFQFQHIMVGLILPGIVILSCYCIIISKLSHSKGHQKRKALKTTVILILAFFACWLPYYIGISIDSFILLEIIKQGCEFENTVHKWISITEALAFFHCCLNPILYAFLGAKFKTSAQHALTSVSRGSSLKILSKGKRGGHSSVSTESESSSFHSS

| BRET50 (EYFP/Lum) | Binder |
| --- | --- |
| 0.072 | α1b-AR-EYFP (α1b-adrenergic receptor with enhanced yellow fluorescent protein at the C-terminus) (receptor, UniProt P35368 1-520, looked up) MNPDLDTGHNTSAPAHWGELKNANFTGPNQTSSNSTLPQLDITRAISVGLVLGAFILFAIVGNILVILSVACNRHLRTPTNYFIVNLAMADLLLSFTVLPFSAALEVLGYWVLGRIFCDIWAAVDVLCCTASILSLCAISIDRYIGVRYSLQYPTLVTRRKAILALLSVWVLSTVISIGPLLGWKEPAPNDDKECGVTEEPFYALFSSLGSFYIPLAVILVMYCRVYIVAKRTTKNLEAGVMKEMSNSKELTLRIHSKNFHEDTLSSTKAKGHNPRSSIAVKLFKFSREKKAAKTLGIVVGMFILCWLPFFIALPLGSLFSTLKPPDAVFKVVFWLGYFNSCLNPIIYPCSSKEFKRAFVRILGCQCRGRGRRRRRRRRRLGGCAYTYRPWTRGGSLERSQSRKDSLDDSGSCLSGSQRTLPSASPSPGYLGRGAPPPVELCAFPEWKAPGALLSLPAPEPPGRRGRHDSGPLFTFKLLTEPESPGTDGGASNGGCEAAADVANGQPGFKSNMPLAPGQF |
| 0.051 | α1d-AR-EYFP (α1d-adrenergic receptor with enhanced yellow fluorescent protein at the C-terminus) (receptor, UniProt P25100 1-572, looked up) MTFRDLLSVSFEGPRPDSSAGGSSAGGGGGSAGGAAPSEGPAVGGVPGGAGGGGGVVGAGSGEDNRSSAGEPGSAGAGGDVNGTAAVGGLVVSAQGVGVGVFLAAFILMAVAGNLLVILSVACNRHLQTVTNYFIVNLAVADLLLSATVLPFSATMEVLGFWAFGRAFCDVWAAVDVLCCTASILSLCTISVDRYVGVRHSLKYPAIMTERKAAAILALLWVVALVVSVGPLLGWKEPVPPDERFCGITEEAGYAVFSSVCSFYLPMAVIVVMYCRVYVVARSTTRSLEAGVKRERGKASEVVLRIHCRGAATGADGAHGMRSAKGHTFRSSLSVRLLKFSREKKAAKTLAIVVGVFVLCWFPFFFVLPLGSLFPQLKPSEGVFKVIFWLGYFNSCVNPLIYPCSSREFKRAFLRLLRCQCRRRRRRRPLWRVYGHHWRASTSGLRQDCAPSSGDAPPGAPLALTALPDPDPEPPGTPEMQAPVASRRKPPSAFREWRLLGPFRRPTTQLRAKVSSLSHKIRAGGAQRAEAACAQRSEVEAVSLGVPHEVAEGATCQAYELADYSNLRETDI |
| 0.055 | α1a-AR-EYFP (α1a-adrenergic receptor with enhanced yellow fluorescent protein at the C-terminus) (receptor, UniProt P35348 1-466, looked up) MVFLSGNASDSSNCTQPPAPVNISKAILLGVILGGLILFGVLGNILVILSVACHRHLHSVTHYYIVNLAVADLLLTSTVLPFSAIFEVLGYWAFGRVFCNIWAAVDVLCCTASIMGLCIISIDRYIGVSYPLRYPTIVTQRRGLMALLCVWALSLVISIGPLFGWRQPAPEDETICQINEEPGYVLFSALGSFYLPLAIILVMYCRVYVVAKRESRGLKSGLKTDKSDSEQVTLRIHRKNAPAGGSGMASAKTKTHFSVRLLKFSREKKAAKTLGIVVGCFVLCWLPFFLVMPIGSFFPDFKPSETVFKIVFWLGYLNSCINPIIYPCSSQEFKKAFQNVLRIQCLCRKQSSKHALGYTLHPPSQAVEGQHKDMVRIPVGSRETFYRISKTDGVCEWKFFSSMPRGSARITVSKDQSSCTTARVRSKSFLQVCCCVGPSTPSLDKNHQVPTIKVHTISLSENGEEV |
